{"source": "IntAct's records for PubMed 12829691", "parents": {"B1": {"name": "E3 ubiquitin-protein ligase CBL-B (Homo sapiens), Q13191 (parent)", "chain": "MANSMNGRNPGGRGGNPRKGRILGIIDAIQDAVGPPKQAAADRRTVEKTWKLMDKVVRLCQNPKLQLKNSPPYILDILPDTYQHLRLILSKYDDNQKLAQLSENEYFKIYIDSLMKKSKRAIRLFKEGKERMYEEQSQDRRNLTKLSLIFSHMLAEIKAIFPNGQFQGDNFRITKADAAEFWRKFFGDKTIVPWKVFRQCLHEVHQISSGLEAMALKSTIDLTCNDYISVFEFDIFTRLFQPWGSILRNWNFLAVTHPGYMAFLTYDEVKARLQKYSTKPGSYIFRLSCTRLGQWAIGYVTGDGNILQTIPHNKPLFQALIDGSREGFYLYPDGRSYNPDLTGLCEPTPHDHIKVTQEQYELYCEMGSTFQLCKICAENDKDVKIEPCGHLMCTSCLTAWQESDGQGCPFCRCEIKGTEPIIVDPFDPRDEGSRCCSIIDPFGMPMLDLDDDDDREESLMMNRLANVRKCTDRQNSPVTSPGSSPLAQRRKPQPDPLQIPHLSLPPVPPRLDLIQKGIVRSPCGSPTGSPKSSPCMVRKQDKPLPAPPPPLRDPPPPPPERPPPIPPDNRLSRHIHHVESVPSRDPPMPLEAWCPRDVFGTNQLVGCRLLGEGSPKPGITASSNVNGRHSRVGSDPVLMRKHRRHDLPLEGAKVFSNGHLGSEEYDVPPRLSPPPPVTTLLPSIKCTGPLANSLSEKTRDPVEEDDDEYKIPSSHPVSLNSQPSHCHNVKPPVRSCDNGHCMLNGTHGPSSEKKSNIPDLSIYLKGDVFDSASDPVPLPPARPPTRDNPKHGSSLNRTPSDYDLLIPPLGEDAFDALPPSLPPPPPPARHSLIEHSKPPGSSSRPSSGQDLFLLPSDPFVDLASGQVPLPPARRLPGENVKTNRTSQDYDQLPSCSDGSQAPARPPKPRPRRTAPEIHHRKPHGPEAALENVDAKIAKLMGEGYAFEEVKRALEIAQNNVEVARSILREFAFPPPVSPRLNL"}}, "data": [{"variants_of": "B1", "settings": "with sh3k1_human SH3KBP1, Q96B97", "values": [{"variant": "R911A", "effect of a mutation on the interaction": "decreasing interaction"}]}]}
